Earlier results in US20260345619A1 (Principia Biopharma Inc., priority 2023, published 2026).

B1: reslizumab: anti-interleukin (IL)-5 agent (antibody, chains of the INN, looked up, V domains shown)
VH: EVQLVESGGGLVQPGGSLRLSCAVSGLSLTSNSVNWIRQAPGKGLEWVGLIWSNGDTDYNSAIKSRFTISRDTSKSTVYLQMNSLRAEDTAVYYCAREYYGYFDYWGQGTLVTVSS
VL: DIQMTQSPSSLSASVGDRVTITCLASEGISSYLAWYQQKPGKAPKLLIYGANSLQTGVPSRFSGSGSATDYTLTISSLQPEDFATYYCQQSYKFPNTFGQGTKVEVK
B2: mepolizumab: anti-interleukin (IL)-5 agent (antibody, chains of the INN, looked up, V domains shown)
VH: QVTLRESGPALVKPTQTLTLTCTVSGFSLTSYSVHWVRQPPGKGLEWLGVIWASGGTDYNSALMSRLSISKDTSRNQVVLTMTNMDPVDTATYYCARDPPSSLLRLDYWGRGTPVTVSS
VL: DIVMTQSPDSLAVSLGERATINCKSSQSLLNSGNQKNYLAWYQQKPGQPPKLLIYGASTRESGVPDRFSGSGSGTDFTLTISSLQAEDVAVYYCQNVHSFPFTFGGGTKLEIK

Details: for efficacy: severe asthma, eosinophilic phenotype

Molecule | efficacy | patients with no decrease in oral corticosteroid (OCS) dose or lack of asthma control (high eosinophilic group (Bel E H et al., 2014)) [%]
B1 | have shown efficacy | –
B2 | have shown efficacy | 36
